Measurements as given in patent US20200055930A1 (Pfizer, published 2020).
Changes are numbered by the printed parent chain. “And” between values parts separate entries of the source, which are not always exact repeats. Equal values may be shown once. Values belong to the binder of their own block, whether it stands above or below them.

Key:
[1] = target: T1, Mouse Fc-human GDF15 (Mu IgG1Fc_Fxa_Hu GDF15) (human (GDF15 part)); assay: SPR BIAcore T200 37C; Fc-GDF15 captured, IgG analyte
T1 construct: Whole fusion entry; also called Murine dimeric IgG1 Fc-human GDF-15 with FXa cleavage site; control human GDF15
T1 chain: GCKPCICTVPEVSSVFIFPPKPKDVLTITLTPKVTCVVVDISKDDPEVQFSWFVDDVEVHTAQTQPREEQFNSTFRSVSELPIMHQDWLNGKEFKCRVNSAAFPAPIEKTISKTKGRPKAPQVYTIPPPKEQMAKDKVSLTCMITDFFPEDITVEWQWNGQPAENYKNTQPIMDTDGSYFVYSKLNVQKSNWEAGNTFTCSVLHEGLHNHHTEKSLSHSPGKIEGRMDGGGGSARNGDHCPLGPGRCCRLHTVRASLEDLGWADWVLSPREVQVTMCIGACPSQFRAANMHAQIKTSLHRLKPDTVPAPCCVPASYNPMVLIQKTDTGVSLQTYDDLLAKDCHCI
Experimental: Mouse Fc-human GDF15 (Mu IgG1Fc_Fxa_Hu GDF15; SEQ ID NO:2), Mouse Fc-mouse GDF15 (Mu IgG1Fc_Fxa_Mu GDF15; SEQ ID NO:5) and Mouse Fc-cynomolgus monkey GDF15 (Mu IgG1Fc_Fxa_Cyno GDF15; SEQ ID NO:4) were captured onto three different flow cells of a CM4 sensorchip (catalogue number BR100534, GE Healthcare) surface using the Mouse Antibody Capture Kit (BR100838, GE Healthcare) according to the manufacturer's protocol. The running and sample buffer was 10 mM HEPES pH 7.4, 0.15M NaCl, 3 mM EDTA, 0.05% P-20 (HBS-EP+). The final capture levels of Mu IgG1Fc_Fxa_Hu GDF15, Mu IgG1Fc_Fxa_Mu GDF15 and Mu IgG1Fc_Fxa_Cyno GDF15 were 40 resonance units (RU), 32 RU and 25 RU respectively. Flow cell 1 was used as a reference flow cell. […] The dissociation was monitored for 2.8 hours and the surface was regenerated with 10 mM Glycine pH 1.7. Binding affinities and rate constants were determined for murine and cynomolgus monkey GDF15 by fitting the resulting sensorgram data to a 1:1 Langmuir model in BIAcore T200 Evaluation software version 2.0 (GE Healthcare). […]

[2] = target: Mouse Fc-mouse GDF15 (Mu IgG1Fc_Fxa_Mu GDF15) (mouse (GDF15 part)); assay: SPR BIAcore T200 37C; Fc-GDF15 captured, monomeric Fc-Fab analyte; murine GDF15 ligand (Mu IgG1Fc_Fxa_Mu GDF15), first run
[3] = target: Mouse Fc-mouse GDF15 (Mu IgG1Fc_Fxa_Mu GDF15) (mouse (GDF15 part)); assay: SPR BIAcore T200 37C; Fc-GDF15 captured, monomeric Fc-Fab analyte; murine GDF15 ligand (Mu IgG1Fc_Fxa_Mu GDF15), second run
[4] = target: Mouse Fc-mouse GDF15 (Mu IgG1Fc_Fxa_Mu GDF15) (mouse (GDF15 part)); assay: SPR BIAcore T200 37C; Fc-GDF15 captured, monomeric Fc-Fab analyte
[5] = target: Mouse Fc-mouse GDF15 (Mu IgG1Fc_Fxa_Mu GDF15) (mouse (GDF15 part)); assay: SPR BIAcore T200 37C; Fc-GDF15 captured, monomeric Fc-Fab analyte; average
[6] = target: T2, Mouse Fc-cynomolgus monkey GDF15 (Mu IgG1Fc_Fxa_Cyno GDF15) (cynomolgus monkey (GDF15 part)); assay: SPR BIAcore T200 37C; Fc-GDF15 captured, monomeric Fc-Fab analyte
T2 construct: Whole fusion entry; also called Murine dimeric IgG1 Fc-cyno GDF-15 with FXa cleavage site
T2 chain: T1 chain with H239R, R254H, A287E, T296M, S297N, I345V
Text: (§1) To understand the KD value, without the avidity effect, of GDF15_001 binding to GDF15, monomeric Fc-Fab was produced and tested in the same assay used in Example 2. […] Mu IgG1Fc_Fxa_Hu GDF15, Mu IgG1Fc_Fxa_Mu GDF15 and Mu IgG1Fc_Fxa_Cyno GDF15 were captured onto three different flow cells of a CM4 sensorchip (catalogue number BR100534, GE Healthcare) surface using the Mouse Antibody Capture Kit (BR100838, GE Healthcare) according to the manufacturer's protocol. The running and sample buffer was 10 mM HEPES pH 7.4, 0.15M NaCl, 3 mM EDTA, 0.05% P-20 (HBS-EP+). The final capture levels of Mu IgG1Fc_Fxa_Hu GDF15, Mu IgG1Fc_Fxa_Mu GDF15 and Mu IgG1Fc_Fxa_Cyno GDF15 were 19 resonance units (RU), 22 RU and 19 RU respectively. Flow cell 1 was used as a reference flow cell. […] The dissociation was monitored for 1200 seconds and the surface was regenerated with 10 mM Glycine pH 1.7. Binding affinities and rate constants were determined by fitting the resulting sensorgram data to a 1:1 Langmuir model in BIAcore T200 Evaluation software version 2.0 (GE Healthcare).

[7] = target: T1, Mouse Fc-human GDF15 (Mu IgG1Fc_Fxa_Hu …); assay: as above
Text: as §1

[8] = target: T2, Mouse Fc-cynomolgus monkey GDF15 (Mu …); assay: SPR BIAcore T200 37C; Fc-GDF15 captured, IgG analyte
Experimental: (§2) Mouse Fc-human GDF15 (Mu IgG1Fc_Fxa_Hu GDF15; SEQ ID NO:2), Mouse Fc-mouse GDF15 (Mu IgG1Fc_Fxa_Mu GDF15; SEQ ID NO:5) and Mouse Fc-cynomolgus monkey GDF15 (Mu IgG1Fc_Fxa_Cyno GDF15; SEQ ID NO:4) were captured onto three different flow cells of a CM4 sensorchip (catalogue number BR100534, GE Healthcare) surface using the Mouse Antibody Capture Kit (BR100838, GE Healthcare) according to the manufacturer's protocol. The running and sample buffer was 10 mM HEPES pH 7.4, 0.15M NaCl, 3 mM EDTA, 0.05% P-20 (HBS-EP+). The final capture levels of Mu IgG1Fc_Fxa_Hu GDF15, Mu IgG1Fc_Fxa_Mu GDF15 and Mu IgG1Fc_Fxa_Cyno GDF15 were 40 resonance units (RU), 32 RU and 25 RU respectively. Flow cell 1 was used as a reference flow cell. […] The dissociation was monitored for 2.8 hours and the surface was regenerated with 10 mM Glycine pH 1.7. Binding affinities and rate constants were determined for murine and cynomolgus monkey GDF15 by fitting the resulting sensorgram data to a 1:1 Langmuir model in BIAcore T200 Evaluation software version 2.0 (GE Healthcare).
(§3) Additionally, the binding of clone GDF15_001 to cynomolgus monkey and mouse GDF15 was measured using above mentioned BIAcore assay (Table 7).

[9] = target: T1, Mouse Fc-human GDF15 (Mu IgG1Fc_Fxa_Hu …); assay: SPR BIAcore T200 37C; Fc-GDF15 captured, IgG analyte; same run as printed in Table 6 (the 8th table r8)
Experimental: as §2, §3

[10] = target: T1, Mouse Fc-human GDF15 (Mu IgG1Fc_Fxa_Hu …); assay: SPR BIAcore T200 37C; Fc-GDF15 captured, IgG analyte; same run as printed in Table 6 (the 8th table r9)
Experimental: as §2, §3

[11] = target: T1, Mouse Fc-human GDF15 (Mu IgG1Fc_Fxa_Hu …); assay: SPR BIAcore T200 37C; Fc-GDF15 captured, IgG analyte; same run as printed in Table 6 (the 8th table r7)
Experimental: as §2, §3

B3: GDF15_014 (antibody, human IgG1, kappa, V domains shown)
VH: QVQLVQSGAEVKKPGSSVKVSCKASGYTFSSYNIDWVRQAPGQGLEWMGQINPINGLAFYNQKFQGRVTITADESTSTAYMELSSLRSEDTAVYYCAREAITTVGAMDYWGQGTLVTVSS
VL: EIVLTQSPATLSLSPGERATLSCRTSQNVHNYLAWYQQKPGQAPRLLIYDASNRATGIPARFSGSGSGTDFTLTISSLEPEDFAVYYCQQFWSDPYTFGQGTKVEIKR
notes: Tested in bivalent format
T½ [1]: 645 min and 780 min

B4: GDF15_004 (antibody, human IgG1, kappa, V domains shown)
VH: B3 VH with I54N, F59N, N61A, V104I
VL: B3 VL with Q27E, N28S, N31S, N53T, T56D
notes: Tested in bivalent format
T½ [1]: 162 min and 141 min

B5: GDF15_015 (antibody, human IgG1, kappa, V domains shown)
VH: B3 VH with S31D, I34M, I54N, M107T
VL: B3 VL with N31S, R54L, T56D, W92S, S93N, Y96W
notes: Tested in bivalent format
T½ [1]: 116 min and 112 min

B7: GDF15_003 (antibody, human IgG1, kappa, V domains shown)
VH: B3 VH with S30T, I54N, A100Q
VL: B3 VL with T25A, N28S, V29L, H30S, N31S, S52K, T56D, W92S
notes: Tested in bivalent format
T½ [1]: 160 min and 126 min

B8: GDF15_013 (antibody, human IgG1, kappa, V domains shown)
VH: B3 VH with S31D, I34M, Q50G, I54N
VL: B3 VL with Q27E, N28S, N31S, S93N, D94W, Y96W
notes: Tested in bivalent format
T½ [1]: 173 min and 154 min

B9: GDF15_001 (antibody, human IgG1, kappa, V domains shown)
VH: B3 VH with Q50G, N55F, L57T, Y109H
VL: B3 VL with N28S, N53T, T56D, D94W, Y96W
notes: Bivalent IgG1/kappa; also called clone GDF15_001; anti-GDF15_001
T½ [8]: 886 min and 928 min and 1120 min
T½ [9]: 1850 min
T½ [1]: 2420 min and 1250 min and 1850 min
T½ [10]: 2420 min
T½ [11]: 1250 min

B13: GDF15_010 (antibody, human IgG1, kappa, V domains shown)
VH: B3 VH with S31D, Q50G, I54N, Y60F
VL: B3 VL with N28S, V29L, N31S, S93N, Y96W
notes: Tested in bivalent format
T½ [1]: 784 min and 649 min

The remaining lines, values ahead:

T½ [1]: 1060 min and 895 min
B1: GDF15_0297 (antibody, mouse IgG1, kappa, V domains shown)
VH: QVQLQQPGAELVKPGASVKMSCKASGYPFEGWYIHWVKQRPGQGLEWMGWNNPRTGLTNHAQKFQGKVTMTRDTSSSTAYMQLSSLTSEDSAVYYCARGVGADAAFDIWGQGTTLTVSS
VL: DIVMTQSPSSLSVSAGEKVTMSCRSSQSLLWKHGYNYLDWYQQKPGQPPKLLIYLDRNRAHGVPDRFTGSGSGTDFTLTISSVQAEDLAVYYCMQSFETPITFGGGTKLEIKR
notes: also called GDF15_297; GDF_0297

Kd [2]: 2.11 nM
Kd [3]: 1.82 nM
T½ [4]: 3.39 min and 3.73 min
koff [4]: 0.00341 s⁻¹ and 0.0031 s⁻¹
kon [4]: 1.62e+06 M⁻¹ s⁻¹ and 1.7e+06 M⁻¹ s⁻¹
Kd [5]: 1.97 nM
koff [5]: 0.00326 s⁻¹
kon [5]: 1.66e+06 M⁻¹ s⁻¹
T½ [6]: 154 min and 123 min
T½ [7]: 513 min and 252 min
B2: monomeric GDF15_001 (Fab, V domains shown)
VH: B3 VH with Q50G, N55F, L57T, Y109H
VL: EIVLTQSPATLSLSPGERATLSCRTSQSVHNYLAWYQQKPGQAPRLLIYDASTRADGIPARFSGSGSGTDFTLTISSLEPEDFAVYYCQQFWSWPWTFGQGTKVEIK
notes: only the variable domains of GDF15_001 are tied to it; also called CH23LS-GDF15_001; CH23LS-GBT-GDF15_001

T½ [1]: 654 min and 795 min
B6: GDF15_022 (antibody, human IgG1, kappa, V domains shown)
VH: B3 VH with S31D, I54N, A58I, Y60F, A100V
VL: B3 VL with N28S, N31S, S52K, N53T, T56D, W92S
notes: Tested in bivalent format

T½ [1]: 39.6 min and 32.8 min
B10: GDF15_021 (antibody, human IgG1, kappa, V domains shown)
VH: B3 VH with Q50G, A58I, Y60F, Y109H
VL: B3 VL with Q27E, N31S, R54L, T56D
notes: Tested in bivalent format

T½ [1]: 141 min and 133 min
B11: GDF15_017 (antibody, human IgG1, kappa, V domains shown)
VH: B3 VH with S30T, S31D, I54N, T91N
VL: B3 VL with N28S, N31S, S52K, N53T, W92S
notes: Tested in bivalent format

T½ [1]: 122 min and 102 min
B12: GDF15_020 (antibody, human IgG1, kappa, V domains shown)
VH: B3 VH with S31D, I34M, I54N, F59N
VL: B3 VL with T25A, V29L, N31S, N53T, T56D
notes: Tested in bivalent format

T½ [1]: 222 min and 268 min
B14: GDF15_0470 (antibody, human IgG1, kappa, V domains shown)
VH: QVQLVQSGAEVKKPGASVKVSCKASGYPFEGWYIHWVRQAPGQGLEWMGWNNPRTGLTNHAQKFQGRVTMTRDTSISTAYMELSRLRSDDTAVYYCARGVGADAAFDIWGQGTMVTVSS
VL: EIVLTQSPATLSLSPGERATLSCRSSQSLLWKHGYNYLDWYQQKPGQAPRLLIYLDRNRAHGIPARFSGSGSGTDFTLTISSLEPEDFAVYYCMQSFETPITFGQGTKVEIKR
notes: Tested in bivalent format; also called GDF15-470
